Measured values published in US20070286858A1.

Biological target: murine RAGE-Fc (mouse) (UniProt Q62151)
Assay: method not given

murine RAGE-Fc (mouse), sequence (Q62151 other isoform, or with tags, fused parts or gaps, form in doubt): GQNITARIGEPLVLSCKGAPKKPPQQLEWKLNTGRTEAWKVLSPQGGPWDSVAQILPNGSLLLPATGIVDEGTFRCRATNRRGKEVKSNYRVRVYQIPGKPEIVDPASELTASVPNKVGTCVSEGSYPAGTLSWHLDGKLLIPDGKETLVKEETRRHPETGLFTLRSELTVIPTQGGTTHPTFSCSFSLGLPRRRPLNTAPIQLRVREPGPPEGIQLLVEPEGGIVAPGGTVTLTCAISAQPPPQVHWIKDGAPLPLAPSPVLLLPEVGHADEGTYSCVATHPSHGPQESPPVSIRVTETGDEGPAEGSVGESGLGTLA

B1: XT-M4 (antibody, rat IgG2b, V domains shown)
VH: EVQLVESGGGLVQPGRSLKLSCVVSGFTFNNYWMTWIRQTPGKGLEWVASINNSGDNTYYPDSVKDRFTISRDNAKSTLYLQMNSLRSEDTATYYCTRGGDITTGFDYWGQGVMVTVSS
VL: DIQMTQSPSSMSVSLGDTITITCRASQDVGIYVNWFQQKPGKSPRRMIYRATNLADGVPSRFSGSRSGSIYSLTISSLESEDVADYHCLEFDEHPLTFGSGTKVEIK
Kd: 300 pM
